# Measured values from patent publication US9682130B2 (priority 2015, dated 2017).
# Like-named read-outs stand apart in the source and are kept apart here.
# B1: Ranpirnase (protein, UniProt P22069 1-104, looked up)
# Protein P-30: QDWLTFQKKHITNTRDVDCDNIMSTNLFHCKDKNTFIYSRPEPVKAICKGIIASKNVLTTSEFYLSDCNVTSRPCKYKLKKSTNKFCVTCENQAPVHFVGVGSC
# notes: amphibian ribonuclease originally isolated from oocytes and/or early embryos of Rana pipiens; pancreatic ribonuclease (RNase A) superfamily, about 12 kD
# What was measured:
# [1] = test system: Human Adenovirus 5 (AD5 strain NYS #98-1836); test: Virus yield reduction assay, Adenovirus 5; format: cell-based
# Description: The concentration of test compound required to inhibit CPE by 50% or reduce red uptake into cells by 50% (EC50) was calculated by regression analysis. The toxicity of the compound without virus present was similarly calculated using the uninfected wells treated with test compounds compared with untreated cell controls. The concentration of compound that would cause 50% cytotoxic effects in the absence of virus (CC50) was estimated by linear regression analysis. The selectivity index (SI) is the CC50 divided by EC50.
# The virus yield reduction assay was used to determine actual virus amounts in the presence and absence of the test compound; this is the confirmatory assay for antiviral activity. […] Replicate wells of each compound concentration or control were pooled and frozen at −80° C. Samples were thawed and diluted by 10-fold serial dilutions. A 100 μL aliquot of each dilution was then plated onto 4 replicate wells of 96-well plates seeded with the applicable cells for each virus strain. Plates were incubated as noted above until viral CPE reached its endpoint, then each well was scored microscopically for the presence of viral CPE. The virus titer was determined based on the endpoint using the Reed-Muench method. […]
# [2] = Jones Dye test for nasolacrimal duct blockage; format: in vivo, NZW rabbit; details: Day 21, all Ranpirnase concentrations
# Description: The animals were also assayed on day 21 for nasolacrimal duct blockage by performing a Jones Dye test. On Day 21, a drop of sodium fluorescein was placed in each eye and the time to the dye appearing in the ipsilateral nostril was measured.
# [3] = test system: Human Adenovirus 8 (Ad8 strain 13306); test: Neutral red lysosomal uptake assay, Adenovirus 8; format: cell-based; details: Adenovirus 8, MA-104 cells
# Description: To assess in vitro cytotoxicity, both a cytopathic effects of a virus (CPE) regression assay and a neutral red lysosomal uptake cell viability assay was performed essentially as described in, e.g., Repetto, et al., Neutral Red Uptake Assay for the Estimation of Cell Viability/Cytotoxicity, Nat. Protoc. 3: 1125-1131 (2008), the content of which is hereby incorporated by reference in its entirety. Ninety-six-well plates were seeded with MA-104 cells at 1×10^5 cells/mL and incubated overnight at 37° C. with 5% CO2. […] Each dilution was added to 5 wells of a 96-well plate with 80% to 100% confluent cells, and three wells of each dilution were then infected with one of the two test viruses. Two wells remained uninfected as controls for toxicity. Six wells per plate were set aside as uninfected, untreated cell controls, and six wells per plate were infected with no treatment as virus controls. […] Assay plates were incubated at 37° C. with 5% CO2. […] After CPE reduction assay was completed, a neutral red lysosomal uptake assay was conducted by filling each well with 0.011% (m/v) neutral red, a vital stain. The plates then were incubated for about 2 hours at 37° C. in the dark. […] The plates were then read on a spectrophotometer at 540 nm to quantify the neutral red taken up by the healthy cells. […]
# MA-104 cells [4] = test system: MA-104 cells
# MA-104 cells [5] = test: Toxicity in uninfected wells (CC50); details: for Yield Reduction Assay CC50: yield reduction columns
molecule,measurement,setting,value
B1,Yield Reduction Assay EC50,[1],21.54 µg/mL
same,"Blocked nasolacrimal ducts, Jones Dye test",[2],"no Ranpirnase treated rabbits, regardless of concentration, resulted in blocked nasolacrimal ducts"
same,Neutral Red Assay EC50,[3],<100 µg/mL
same,CPE Reduction Assay CC50,MA-104 cells [4],75 µg/mL
same,Neutral Red Assay CC50,MA-104 cells [5]; Adenovirus 5 section,52 µg/mL
same,Yield Reduction Assay CC50,MA-104 cells [5]; Adenovirus 5 section,52 µg/mL
same,CPE Reduction Assay CC50,"MA-104 cells [5]; Adenovirus 8 section, CPE scoring",59 µg/mL
same,Neutral Red Assay CC50,MA-104 cells [5]; Adenovirus 8 section,44 µg/mL
same,Yield Reduction Assay CC50,MA-104 cells [5]; Adenovirus 8 section,59 µg/mL
